Measurements: US20120028913A1 (BIOKINE THERAPEUTICS, published 2012)
Bridges are numbered along the chain shown (N, C = ends). Where no end group is shown, it is not given here. The star is where a group is joined. Biotin = O=C1N[C@H]2[C@H](CS[C@H]2CCCCC(=O)*)N1

Assays:
Human MCP-1 (MCAF) [1] = biological target: T1, Human MCP-1 (MCAF) (human, UniProt P13500 24-99); experiment: Bound chemokines (at least); screen vs control proteins
T1 construct: bought recombinant chemokine

[2] = biological target: T2, human IL-8, (72 amino acids) (human, UniProt P10145 28-99); experiment: ELISA on chemokine-coated plates, fold over control proteins (FIG. 3)
T2 sequence (looked up): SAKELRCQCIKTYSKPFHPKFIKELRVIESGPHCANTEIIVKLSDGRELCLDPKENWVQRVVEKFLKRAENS
Protocol: (§1) NUNC-Immuno maxisorp plates (Cat. No. 4-42404) were coated with the appropriate chemokine (0.1 ml/well, 0.1-1.0 μg/ml in 0.1 M NaHCO₃, pH 8.6), overnight at 4° C. The plates were then blocked with 0.2 ml/well of blocking buffer (5 mg/ml BSA in 0.1 NaHCO₃). Control wells were treated with blocking buffer alone, with no addition of target protein (chemokine). The plates were washed 6 times with PBST (0.1% Tween 20 in PBS), followed by incubation for 45 minutes at room temperature with 10-fold serial dilutions of individual synthetic peptides (10 pg-10 μg) with 1% BSA (PBST-BSA)/well. After the plates were washed 6 times with PBST, the bound peptides were probed by HRP-SA Conjugate, diluted 1:10,000 to 1:20,000 in PBST-BSA, 0.1 ml/well for 45 minutes at room temperature. The target-bound synthetic peptides probed with HRP-SA were quantified by DAKO TMB one-step substrate system, followed by the addition of stop solution, HCl—H₂SO₄ mixture (0.1 ml/well) ON HCl, 3N H₂SO₄). The results were analyzed by ELISA reader at OD₄₅₀.
(§2) As discussed above, the level of binding was calculated by comparing binding of the peptides to the chemokines with peptide binding to controls. Level of control binding was defined as level 1 (up to a one-fold increase in binding). This control binding level is illustrated in the Figure as a dashed line.

Human MCP-1 (MCAF) [3] = biological target: T1, Human MCP-1 (MCAF); experiment: as above
Protocol: as §1, §2

Human SDF-1α [4] = biological target: T3, Human SDF-1α (human, UniProt P48061-2 22-89); experiment: as above
T3 construct: bought recombinant chemokine; also called SDF-1 alpha
Protocol: as §1, §2

human MIG [5] = biological target: T4, human MIG (human, UniProt Q07325 23-125); experiment: as above
T4 construct: bought recombinant chemokine
T4 sequence (looked up): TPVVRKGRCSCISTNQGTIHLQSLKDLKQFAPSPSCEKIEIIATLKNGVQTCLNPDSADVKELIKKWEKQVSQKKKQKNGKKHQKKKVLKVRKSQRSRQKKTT
Protocol: as §1, §2

human Eotaxin [6] = biological target: T5, human Eotaxin (human, UniProt P51671 24-97); experiment: as above
T5 construct: bought recombinant chemokine
Protocol: as §1, §2

Human MCP-1 (MCAF) [7] = biological target: T1, Human MCP-1 (MCAF); experiment: Bound chemokines (at least); screen vs control proteins; remark: listed apart in the source
human Eotaxin [8] = biological target: T5, human Eotaxin; experiment: peptide-containing carriers, binding vs control proteins (FIG. 1)
human Eotaxin [9] = biological target: T5, human Eotaxin; experiment: Bound chemokines (at least); screen vs control proteins
[10] = biological target: T2, human IL-8, (72 amino acids); experiment: as above
human Eotaxin [11] = biological target: T5, human Eotaxin; experiment: cell-based or functional assay
Human SDF-1α [12] = biological target: T3, Human SDF-1α; experiment: Bound chemokines (at least); screen vs control proteins
human MIG [13] = biological target: T4, human MIG; experiment: cell-based or functional assay
human MIG [14] = biological target: T4, human MIG; experiment: Bound chemokines (at least); screen vs control proteins
[15] = biological target: T2, human IL-8, (72 amino acids); experiment: as above; remark: listed apart in the source
[16] = biological target: T2, human IL-8, (72 amino acids); experiment: cell-based or functional assay

T5 sequence (P51671 24-97 limits assumed): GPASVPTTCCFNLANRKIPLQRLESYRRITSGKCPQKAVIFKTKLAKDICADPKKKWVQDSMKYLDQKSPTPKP
T1 sequence (P13500 24-99 limits assumed): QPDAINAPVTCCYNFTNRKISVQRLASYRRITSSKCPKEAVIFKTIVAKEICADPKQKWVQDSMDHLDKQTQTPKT
T3 sequence (P48061 22-89 limits assumed): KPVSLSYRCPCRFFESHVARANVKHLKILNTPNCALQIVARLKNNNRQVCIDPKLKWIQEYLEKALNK

TRLVPSRYYHHP [BKT-P47]
binding result (Human MCP-1 (MCAF) [1]): binds

B1: BKT-P18 (peptide)
peptide: ACKESATYFCGGGSK(Biotin)G
modifications: disulfide 2-10 (inferred)
notes: general synthetic cyclic format applied; also called control peptide
binding result [2]: no binding | binding result (Human MCP-1 (MCAF) [3]): no binding | binding result (Human SDF-1α [4]): no binding | binding result (human MIG [5]): no binding | binding result (human Eotaxin [6]): no binding

YATQHNWRLKHE [BKT-P53]
binding result (Human MCP-1 (MCAF) [7]): binds

B2: BKT-P22/38 (peptide)
peptide: LGFDPTSTRFYT
notes: the carrier is not described; also called BKT-P38
binding result (human Eotaxin [8]): binds

GVHKHFYSRWLG [BKT-P33]
binding result (human Eotaxin [9]): binds

SAISDHRAHRSH [BKT-P40]
binding result [10]: binds

ESDLTHALHWLG [BKT-P51]
binding result (Human MCP-1 (MCAF) [7]): binds

SAGHIHEAHRPLGGGSK(Biotin)G [BKT-P39]
Level of Antagonistic Effect (T cell arrest under laminar flow on VCAM-1 plus chemokine) (human Eotaxin [11]): 100%

WSAHIVPYSHKP [BKT-P52]
binding result (Human MCP-1 (MCAF) [7]): binds

AHSLKSITNHGL [BKT-P44]
binding result (Human MCP-1 (MCAF) [7]): binds

CHHNLSWEC (not fully specified (bridges); cysteine pairing not given here) [BKT-P56]
binding result (Human SDF-1α [12]): binds

VHTSLLQKHPLP [BKT-P26]
binding result (Human MCP-1 (MCAF) [7]): binds

HSACHASLKHRC (not fully specified (bridges); cysteine pairing not given here) [BKT-P49]
binding result (Human MCP-1 (MCAF) [7]): binds

SIPSHSIHSAKAGGGSK(Biotin)G [BKT-P2]
Level of Antagonistic Effect (T cell arrest under laminar flow on VCAM-1 plus chemokine) (human MIG [13]): 50%

HHTWDTRIWQAF [BKT-P55]
binding result (Human MCP-1 (MCAF) [1]): binds

CAHLSPHKC (not fully specified (bridges); cysteine pairing not given here) [BKT-P50]
binding result (human MIG [14]): binds

LDYPIPQTVLHH [BKT-P46]
binding result (Human MCP-1 (MCAF) [1]): binds

ACHASLKHRC (not fully specified (bridges); cysteine pairing not given here) [BKT-P48]
binding result (Human MCP-1 (MCAF) [7]): binds

LLADTTHHRPWP (the carrier is not described) [BKT-P37]
binding result [15]: binds

HHFHLPKLRPPVGGGSK(Biotin)G [BKT-P45]
Level of Antagonistic Effect (T cell arrest under laminar flow on VCAM-1 plus chemokine) [16]: 100% | Level of Antagonistic Effect (T cell arrest under laminar flow on VCAM-1 plus chemokine) (human MIG [13]): 20%

SVQTRPLFHSHF [BKT-P34]
binding result (human Eotaxin [9]): binds

GDFNSGHHTTTR [BKT-P27]
binding result (Human MCP-1 (MCAF) [1]): binds
